Assay results reported in article PMC7891936.

Molecular target: Recombinant human cartilage oligomeric matrix protein (COMP) (human) (UniProt P49747)
Test: atomic force microscopy

Recombinant human cartilage oligomeric matrix protein (COMP), P49747 21-757 (natural protein; other documents disagree on this pair), sequence (P49747 21-757): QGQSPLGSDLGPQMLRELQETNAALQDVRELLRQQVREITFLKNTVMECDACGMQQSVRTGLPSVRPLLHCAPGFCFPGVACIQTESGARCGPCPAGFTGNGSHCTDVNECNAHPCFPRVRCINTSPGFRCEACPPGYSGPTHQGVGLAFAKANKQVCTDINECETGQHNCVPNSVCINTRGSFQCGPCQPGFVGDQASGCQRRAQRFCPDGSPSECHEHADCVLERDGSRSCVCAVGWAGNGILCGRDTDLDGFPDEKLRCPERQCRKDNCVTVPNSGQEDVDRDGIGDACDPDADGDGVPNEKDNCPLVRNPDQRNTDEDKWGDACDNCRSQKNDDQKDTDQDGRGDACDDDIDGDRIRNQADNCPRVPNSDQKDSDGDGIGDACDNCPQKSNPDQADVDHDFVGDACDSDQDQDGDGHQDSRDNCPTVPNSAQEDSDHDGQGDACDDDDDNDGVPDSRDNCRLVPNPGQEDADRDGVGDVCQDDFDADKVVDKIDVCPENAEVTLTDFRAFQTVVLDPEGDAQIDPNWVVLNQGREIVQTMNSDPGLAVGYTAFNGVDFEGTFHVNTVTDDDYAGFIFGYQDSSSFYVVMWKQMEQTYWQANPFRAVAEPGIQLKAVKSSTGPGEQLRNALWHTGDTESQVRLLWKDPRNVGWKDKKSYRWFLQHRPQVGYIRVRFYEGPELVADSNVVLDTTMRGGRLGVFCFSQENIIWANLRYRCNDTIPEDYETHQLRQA

stoichiometry N: 5
Substance: Recombinant human cartilage oligomeric matrix protein (COMP), P49747 21-757 (natural protein; other documents disagree on this pair)
